Laboratory results from PMC3206076, “Structural, Stability, Dynamic and Binding Properties of the ALS-Causing T46I Mutant of the hVAPB MSP Domain as Revealed by NMR and MD Simulations” (PLoS ONE, 2011).

Assays:
[1] = molecular target: Nir2 peptide FFAT motif (Homo sapiens) (UniProt O00562); assay: ITC; conditions: cited from earlier work
[2] = molecular target: T1, wild-type (WT) hVAPB MSP domain (residues 1–125) (human, UniProt O95292 1-125); assay: NMR titration; 1H-15N HSQC of 15N-labeled WT-/T46I-MSP (100 µM) without or with unlabeled Nir2 peptide or EphA4 at molar ratios 1:0.5 to 1:8; 10 mM phosphate buffer, pH 6.8, 25°C; conditions: both partners purified
T1 construct: human VAPB (vesicle-associated membrane protein-associated protein B), MSP domain, residues 1-125; 15N-labelled for the HSQC titrations in which its own spectrum was observed; also called WT-MSP domain; WT-MSP
T1 sequence (O95292 1-125): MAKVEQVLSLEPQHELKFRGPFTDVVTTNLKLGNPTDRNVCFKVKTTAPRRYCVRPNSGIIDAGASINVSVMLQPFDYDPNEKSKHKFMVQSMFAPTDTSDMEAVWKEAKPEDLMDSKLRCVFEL

[3] = molecular target: T2, T46I mutant of the hVAPB MSP domain (human, UniProt O95292 1-125, T46I); assay: ITC; Microcal VP; peptide or EphA4 (300 µM) in the syringe, MSP protein (10 µM) in the cell; 50 mM Tris-HCl, 150 mM NaCl, 2 mM DTT, pH 7.5, 25°C; single binding site model; conditions: both partners purified
T2 construct: human VAPB MSP domain, residues 1-125, with the ALS-causing T46I mutation found in non-Brazilian kindred; Made by site-directed mutagenesis on the WT-MSP construct; PDB 3IKK is the structure of the WT parent; 15N-labelled for the HSQC titrations in which its own spectrum was observed; also called T46I-MSP domain; T46I-MSP
T2 sequence (O95292 1-125 T46I): as the sequence (O95292 1-125) above, with T46I counted along it

[4] = molecular target: T46I mutant of the hVAPB MSP domain (human, UniProt O95292 1-125, T46I); assay: ITC
Target sequence in this assay (O95292 1-125 T46I): as the sequence (O95292 1-125) above, with T46I counted along it

Sequence of VAPB MSP (O95292 4-127): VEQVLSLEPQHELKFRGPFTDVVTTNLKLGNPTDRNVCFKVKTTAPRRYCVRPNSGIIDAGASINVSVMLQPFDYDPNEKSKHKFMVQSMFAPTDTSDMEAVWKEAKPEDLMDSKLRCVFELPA

| Molecule | Kd [1] [nM] | binding result [2] | Kd [3] [nM] | Ka [4] [M⁻¹] |
| --- | --- | --- | --- | --- |
| VAPB MSP (from UniProt O95292) | 650 | – | – | – |
| EEEFFDAHE (FFAT-motif peptide of the Nir2 protein; also called the peptide; source: synthetic peptide, bought: Genesis Biotech Inc., further purified by HPLC (reverse-phase C18)) [Nir2 peptide (EEEFFDAHE)] | – | binds | 2200 | 455000 |
